The supplement of paper PMC5998384

Columns and labels:
HeLa Kyoto [1] = assay: thermal stability score vs G1/S (z-score of summed log2 fold changes over temperatures); higher = more thermally stable than in G1/S
HeLa Kyoto [2] = assay: solubility change mitosis vs G1/S (difference of NP-40 vs SDS log2 ratios) (log2 ratio difference); higher = more soluble in mitosis
HeLa Kyoto [3] = assay: solubility in G1/S (NP-40 vs SDS abundance) (log2 ratio); higher = more soluble; details: cell cycle stage: G1/S
HeLa Kyoto [4] = assay: melting temperature (median over replicates), in situ; higher = more thermally stable
[5] = cell cycle stage: early G1 (4.5 h after nocodazole release)
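For melting temperature (median over replicates), in situ in this document: HeLa Kyoto cells synchronized by double thymidine or nocodazole block, proteins quantified by TMT10plex mass spectrometry, three independent biological replicates.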
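For solubility change mitosis vs G1/S (difference of NP-40 vs SDS log2 ratios) in this document: synchronized HeLa Kyoto cells (double thymidine block for G1/S, nocodazole release for mitosis), protein amounts in NP-40 versus SDS lysates quantified by mass spectrometry, three biological replicates.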
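For solubility in G1/S (NP-40 vs SDS abundance) in this document: HeLa Kyoto cells arrested at G1/S by double thymidine block, proteins quantified by TMT10plex mass spectrometry in mild NP-40 versus SDS extracts, three biological replicates.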
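For thermal stability score vs G1/S (z-score of summed log2 fold changes over temperatures) in this document: synchronized HeLa Kyoto cells, proteins quantified by TMT10plex mass spectrometry, three biological replicates, mitosis taken 0.5 h after nocodazole release, G1/S directly after double thymidine block.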

Sequence of ITCH (chain, as listed by the source): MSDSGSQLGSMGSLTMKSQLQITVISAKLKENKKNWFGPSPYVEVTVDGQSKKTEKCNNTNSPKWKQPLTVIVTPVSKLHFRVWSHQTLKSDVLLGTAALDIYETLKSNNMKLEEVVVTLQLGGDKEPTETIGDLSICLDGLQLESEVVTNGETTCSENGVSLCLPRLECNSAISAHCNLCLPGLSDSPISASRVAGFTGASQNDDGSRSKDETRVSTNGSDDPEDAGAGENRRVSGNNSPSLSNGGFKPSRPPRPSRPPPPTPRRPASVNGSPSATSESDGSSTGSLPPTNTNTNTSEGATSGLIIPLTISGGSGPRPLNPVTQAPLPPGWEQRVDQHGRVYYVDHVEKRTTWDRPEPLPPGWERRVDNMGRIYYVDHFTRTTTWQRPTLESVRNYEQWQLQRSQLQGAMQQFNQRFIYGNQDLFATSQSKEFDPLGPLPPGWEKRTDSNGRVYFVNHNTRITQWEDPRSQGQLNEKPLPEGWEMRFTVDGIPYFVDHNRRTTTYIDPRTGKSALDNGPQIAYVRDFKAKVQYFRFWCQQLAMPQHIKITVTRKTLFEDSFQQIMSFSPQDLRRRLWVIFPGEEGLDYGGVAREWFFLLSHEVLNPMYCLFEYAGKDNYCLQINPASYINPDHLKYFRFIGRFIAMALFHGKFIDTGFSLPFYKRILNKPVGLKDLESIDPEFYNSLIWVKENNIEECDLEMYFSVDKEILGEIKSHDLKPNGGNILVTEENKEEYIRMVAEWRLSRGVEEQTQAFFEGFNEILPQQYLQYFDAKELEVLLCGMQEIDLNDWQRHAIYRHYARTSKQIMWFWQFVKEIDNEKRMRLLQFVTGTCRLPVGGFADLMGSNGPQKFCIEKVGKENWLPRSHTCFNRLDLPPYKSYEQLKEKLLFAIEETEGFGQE

| Substance | thermal stability score (HeLa Kyoto [1]; [5]) | thermal stability score (HeLa Kyoto [1]; cell cycle stage: mitosis) | solubility change mitosis (log2) (HeLa Kyoto [2]) | solubility in G1/S (log2) (HeLa Kyoto [3]) | melting temperature (HeLa Kyoto [4]; cell cycle stage: G1/S) [°C] | melting temperature (HeLa Kyoto [4]; cell cycle stage: mitosis) [°C] |
| --- | --- | --- | --- | --- | --- | --- |
| MFSWLKRGGARGQQPEAIRTVTSALKELYRTKLLPLEEHYRFGAFHSPALEDADFDGKPMVLVAGQYSTGKTSFIQYLLEQEVPGSRVGPEPTTDCFVAVMHGDTEGTVPGNALVVDPDKPFRKLNPFGNTFLNRFMCAQLPNQVLESISIIDTPGILSGAKQRVSRGYDFPAVLRWFAERVDLIILLFDAHKLEISDEFSEAIGALRGHEDKIRVVLNKADMVETQQLMRVYGALMWALGKVVGTPEVLRVYIGSFWSQPLLVPDNRRLFELEEQDLFRDIQGLPRHAALRKLNDLVKRARLVRVHAYIISYLKKEMPSVFGKENKKKQLILKLPVIFAKIQLEHHISPGDFPDCQKMQELLMAHDFTKFHSLKPKLLEALDEMLTHDIAKLMPLLRQEELESTEVGVQGGAFEGTHMGPFVERGPDEAMEDGEEGSDDEAEWVVTKDKSKYDEIFYNLAPADGKLSGSKAKTWMVGTKLPNSVLGRIWKLSDVDRDGMLDDEEFALASHLIEAKLEGHGLPANLPRRLVPPSKRRHKGSAE [EHD2] | 1.58 | 2.05 | -0.164 | 0.231 | 48.9 | 49.5 |
| MPHRKERPSGSSLHTHGSTGTAEGGNMSRLSLTRSPVSPLAAQGIPLPAQLTKSNAPVHIDVGGHMYTSSLATLTKYPDSRISRLFNGTEPIVLDSLKQHYFIDRDGEIFRYVLSFLRTSKLLLPDDFKDFSLLYEEARYYQLQPMVRELERWQQEQEQRRRSRACDCLVVRVTPDLGERIALSGEKALIEEVFPETGDVMCNSVNAGWNQDPTHVIRFPLNGYCRLNSVQVLERLFQRGFSVAASCGGGVDSSQFSEYVLCREERRPQPTPTAVRIKQEPLD [KCTD15] | -2.02 | 0.00454 | -0.0635 | 0.447 | 56 | 56.9 |
| MKALDEPPYLTVGTDVSAKYRGAFCEAKIKTAKRLVKVKVTFRHDSSTVEVQDDHIKGPLKVGAIVEVKNLDGAYQEAVINKLTDASWYTVVFDDGDEKTLRRSSLCLKGERHFAESETLDQLPLTNPEHFGTPVIGKKTNRGRRSNHIPEEESSSSSSDEDEDDRKQIDELLGKVVCVDYISLDKKKALWFPALVVCPDCSDEIAVKKDNILVRSFKDGKFTSVPRKDVHEITSDTAPKPDAVLKQAFEQALEFHKSRTIPANWKTELKEDSSSSEAEEEEEEEDDEKEKEDNSSEEEEEIEPFPEERENFLQQLYKFMEDRGTPINKRPVLGYRNLNLFKLFRLVHKLGGFDNIESGAVWKQVYQDLGIPVLNSAAGYNVKCAYKKYLYGFEEYCRSANIEFQMALPEKVVNKQCKECENVKEIKVKEENETEIKEIKMEEERNIIPREEKPIEDEIERKENIKPSLGSKKNLLESIPTHSDQEKEVNIKKPEDNENLDDKDDDTTRVDESLNIKVEAEEEKAKSGDETNKEEDEDDEEAEEEEEEEEEEEDEDDDDNNEEEEFECYPPGMKVQVRYGRGKNQKMYEASIKDSDVEGGEVLYLVHYCGWNVRYDEWIKADKIVRPADKNVPKIKHRKKIKNKLDKEKDKDEKYSPKNCKLRRLSKPPFQTNPSPEMVSKLDLTDAKNSDTAHIKSIEITSILNGLQASESSAEDSEQEDERGAQDMDNNGKEESKIDHLTNNRNDLISKEEQNSSSLLEENKVHADLVISKPVSKSPERLRKDIEVLSEDTDYEEDEVTKKRKDVKKDTTDKSSKPQIKRGKRRYCNTEECLKTGSPGKKEEKAKNKESLCMENSSNSSSDEDEEETKAKMTPTKKYNGLEEKRKSLRTTGFYSGFSEVAEKRIKLLNNSDERLQNSRAKDRKDVWSSIQGQWPKKTLKELFSDSDTEAAASPPHPAPEEGVAEESLQTVAEEESCSPSVELEKPPPVNVDSKPIEEKTVEVNDRKAEFPSSGSNSVLNTPPTTPESPSSVTVTEGSRQQSSVTVSEPLAPNQEEVRSIKSETDSTIEVDSVAGELQDLQSEGNSSPAGFDASVSSSSSNQPEPEHPEKACTGQKRVKDAQGGGSSSKKQKRSHKATVVNNKKKGKGTNSSDSEELSAGESITKSQPVKSVSTGMKSHSTKSPARTQSPGKCGKNGDKDPDLKEPSNRLPKVYKWSFQMSDLENMTSAERITILQEKLQEIRKHYLSLKSEVASIDRRRKRLKKKERESAATSSSSSSPSSSSITAAVMLTLAEPSMSSASQNGMSVECR [ARID4B] | 0.255 | 0.983 | 0.0721 | -0.276 | 48.4 | 49.6 |
| MRLREPLLSGSAAMPGASLQRACRLLVAVCALHLGVTLVYYLAGRDLSRLPQLVGVSTPLQGGSNSAAAIGQSSGELRTGGARPPPPLGASSQPRPGGDSSPVVDSGPGPASNLTSVPVPHTTALSLPACPEESPLLVGPMLIEFNMPVDLELVAKQNPNVKMGGRYAPRDCVSPHKVAIIIPFRNRQEHLKYWLYYLHPVLQRQQLDYGIYVINQAGDTIFNRAKLLNVGFQEALKDYDYTCFVFSDVDLIPMNDHNAYRCFSQPRHISVAMDKFGFSLPYVQYFGGVSALSKQQFLTINGFPNNYWGWGGEDDDIFNRLVFRGMSISRPNAVVGRCRMIRHSRDKKNEPNPQRFDRIAHTKETMLSDGLNSLTYQVLDVQRYPLYTQITVDIGTPS [B4GALT1] | -2.25 | -1.74 | 0.0769 | -0.0686 | 53.1 | 54 |
| MAWRGWAQRGWGCGQAWGASVGGRSCEELTAVLTPPQLLGRRFNFFIQQKCGFRKAPRKVEPRRSDPGTSGEAYKRSALIPPVEETVFYPSPYPIRSLIKPLFFTVGFTGCAFGSAAIWQYESLKSRVQSYFDGIKADWLDSIRPQKEGDFRKEINKWWNNLSDGQRTVTGIIAANVLVFCLWRVPSLQRTMIRYFTSNPASKVLCSPMLLSTFSHFSLFHMAANMYVLWSFSSSIVNILGQEQFMAVYLSAGVISNFVSYVGKVATGRYGPSLGASGAIMTVLAAVCTKIPEGRLAIIFLPMFTFTAGNALKAIIAMDTAGMILGWKFFDHAAHLGGALFGIWYVTYGHELIWKNREPLVKIWHEIRTNGPKKGGGSK [PARL] | -0.187 | -2.36 | -0.267 | -0.0323 | 54.9 | 55.8 |
| MRPGGERPVEGGACNGRSELELLKLRSAECIDEAAERLGALSRAIWSQPELAYEEHHAHRVLTHFFEREPPAASWAVQPHYQLPTAFRAEWEPPEARAPSATPRPLHLGFLCEYDALPGIGHACGHNLIAEVGAAAALGVRGALEGLPRPPPPVKVVVLGTPAEEDGGGKIDLIEAGAFTNLDVVFMAHPSQENAAYLPDMAEHDVTVKYYGKASHSASYPWEGLNALDAAVLAYNNLSVFRQQMKPTWRVHGIIKNGGVKPNIIPSYSELIYYFRAPSMKELQVLTKKAEDCFRAAALASGCTVEIKGGAHDYYNVLPNKSLWKAYMENGRKLGIEFISEDTMLNGPSGSTDFGNVSFVVPGIHPYFHIGSNALNHTEQYTEAAGSQEAQFYTLRTAKALAMTALDVIFKPELLEGIREDFKLKLQEEQFVNAVE [PM20D2] | -0.942 | -1.84 | 0.0574 | 0.167 | 52.7 | 52.2 |
| ITCH | 0.594 | 0.999 | 0.0566 | -0.468 | 49.8 | 51.6 |
| MSELEQLRQEAEQLRNQIRDARKACGDSTLTQITAGLDPVGRIQMRTRRTLRGHLAKIYAMHWGTDSRLLVSASQDGKLIIWDSYTTNKVHAIPLRSSWVMTCAYAPSGNFVACGGLDNICSIYSLKTREGNVRVSRELPGHTGYLSCCRFLDDNQIITSSGDTTCALWDIETGQQTVGFAGHSGDVMSLSLAPDGRTFVSGACDASIKLWDVRDSMCRQTFIGHESDINAVAFFPNGYAFTTGSDDATCRLFDLRADQELLMYSHDNIICGITSVAFSRSGRLLLAGYDDFNCNIWDAMKGDRAGVLAGHDNRVSCLGVTDDGMAVATGSWDSFLKIWN [GNB2] | -0.768 | -0.878 | -0.136 | -0.771 | 55.6 | 55.5 |
| MDLWPGAWMLLLLLFLLLLFLLPTLWFCSPSAKYFFKMAFYNGWILFLAVLAIPVCAVRGRNVENMKILRLMLLHIKYLYGIRVEVRGAHHFPPSQPYVVVSNHQSSLDLLGMMEVLPGRCVPIAKRELLWAGSAGLACWLAGVIFIDRKRTGDAISVMSEVAQTLLTQDVRVWVFPEGTRNHNGSMLPFKRGAFHLAVQAQVPIVPIVMSSYQDFYCKKERRFTSGQCQVRVLPPVPTEGLTPDDVPALADRVRHSMLTVFREISTDGRGGGDYLKKPGGGG [AGPAT1] | 0.708 | 0.125 | 0.0448 | -0.318 | 53.3 | 52.7 |
| MAAAAVAAAAAAAAAASLQVLEMESMETAAAGSAGLAAEVRGSGTVDFGPGPGISAMEASGGDPGPEAEDFECSSHCSELSWRQNEQRRQGLFCDITLCFGGAGGREFRAHRSVLAAATEYFTPLLSGQFSESRSGRVEMRKWSSEPGPEPDTVEAVIEYMYTGRIRVSTGSVHEVLELADRFLLIRLKEFCGEFLKKKLHLSNCVAIHSLAHMYTLSQLALKAADMIRRNFHKVIQDEEFYTLPFHLIRDWLSDLEITVDSEEVLFETVLKWVQRNAEERERYFEELFKLLRLSQMKPTYLTRHVKPERLVANNEVCVKLVADAVERHALRAENIQSGTCQHPTSHVSLLPRYGQNMDVIMVIGGVSEGGDYLSECVGYFVDEDRWVNLPHIHNHLDGHAVAVTESYVYVAGSMEPGFAKTVERYNPNLNTWEHVCSLMTRKHSFGLTEVKGKLYSIGGHGNFSPGFKDVTVYNPELDKWHNLESAPKILRDVKALAIEDRFVYIAARTPVDRDTEDGLKAVITCYDTETRQWQDVESLPLIDNYCFFQMSVVNSNFYQTASCCPKSYCLENEEAVRKIASQVSDEILESLPPEVLSIEGAAICYYKDDVFIIGGWKNSDDIDKQYRKEAYRYCAERKRWMLLPPMPQPRCRATACHVRIPYRYLHGTQRYPMPQNLMWQKDRIRQMQEIHRHALNMRRVPSSQIEC [KLHL11] | 0.384 | 0.29 | -0.089 | -0.226 | 51.8 | 50.7 |
| MGNAAGSAEQPAGPAAPPPKQPAPPKQPMPAAGELEERFNRALNCMNLPPDKVQLLSQYDNEKKWELICDQERFQVKNPPAAYIQKLKSYVDTGGVSRKVAADWMSNLGFKRRVQESTQVLRELETSLRTNHIGWVQEFLNEENRGLDVLLEYLAFAQCSVTYDMESTDNGASNSEKNKPLEQSVEDLSKGPPSSVPKSRHLTIKLTPAHSRKALRNSRIVSQKDDVHVCIMCLRAIMNYQSGFSLVMNHPACVNEIALSLNNKNPRTKALVLELLAAVCLVRGGHDIILAAFDNFKEVCGEQHRFEKLMEYFRNEDSNIDFMVACMQFINIVVHSVENMNFRVFLQYEFTHLGLDLYLERLRLTESDKLQVQIQAYLDNIFDVGALLEDTETKNAVLEHMEELQEQVALLTERLRDAENESMAKIAELEKQLSQARKELETLRERFSESTAMGPSRRPPEPEKAPPAAPTRPSALELKVEELEEKGLIRILRGPGDAVSIEILPVAVATPSGGDAPTPGVPTGSPSPDLAPAAEPAPGAAPPPPPPLPGLPSPQEAPPSAPPQAPPLPGSPEPPPAPPLPGDLPPPPPPPPPPPGTDGPVPPPPPPPPPPPGGPPDALGRRDSELGPGVKAKKPIQTKFRMPLLNWVALKPSQITGTVFTELNDEKVLQELDMSDFEEQFKTKSQGPSLDLSALKSKAAQKAPSKATLIEANRAKNLAITLRKGNLGAERICQAIEAYDLQALGLDFLELLMRFLPTEYERSLITRFEREQRPMEELSEEDRFMLCFSRIPRLPERMTTLTFLGNFPDTAQLLMPQLNAIIAASMSIKSSDKLRQILEIVLAFGNYMNSSKRGAAYGFRLQSLDALLEMKSTDRKQTLLHYLVKVIAEKYPQLTGFHSDLHFLDKAGSVSLDSVLADVRSLQRGLELTQREFVRQDDCMVLKEFLRANSPTMDKLLADSKTAQEAFESVVEYFGENPKTTSPGLFFSLFSRFIKAYKKAEQEVEQWKKEAAAQEAGADTPGKGEPPAPKSPPKARRPQMDLISELKRRQQKEPLIYESDRDGAIEDIITVIKTVPFTARTGKRTSRLLCEASLGEEMPL [FMNL1] | 1.48 | 2.85 | -0.0294 | 0.507 | 47.7 | 48.1 |
